Results published in the nanobody polyreactivity screen of Harvey et al. (2022).

Test: yeast display, Sf9 membrane polyspecificity reagent, FACS + sequencing; frameworks hold sequencing errors
Procedure, shortened: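 Nanobodies came from a synthetic yeast display library in Saccharomyces cerevisiae BJ5465, induced with galactose for 36–48 hours and stained for 1 hour at 4 °C with 10% biotinylated, detergent-solubilized Sf9 membrane reagent. Cells were enriched on streptavidin microbeads and then FACS-sorted, with low and high (top ~1%) gates set on anti-HA fluorescence for expression and streptavidin fluorescence for reagent binding. Each polyreactivity label reflects the gate a clone came from. Genes were amplified by colony PCR, sequenced by MiSeq 2 × 250 and filtered by CDR length.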

**Q.** For “QVQLVESGGCLVQAGGSLRLSCAASGIIFSGYAMGWYRQAPGKERELVAAISSRGGGPYYADSVKGRFTISRDNAKKTVYLQMNSLKPEDTAVYYCNRVAFTYNYWGQGTQVTVTS”, which “polyreactivity (PSR sort gate)” value is on record?
**A.** high polyreactivity

**Q.** Which “polyreactivity (PSR sort gate)” value does the source give for “QVQLVESGGCLVQAGGSLRLSCAASGIIFTYYAMGWYRQAPGKERELVARISSSGGRTYYADSVKGRFTISRDNAKNTVYLQMNSLKPEDTAVYYCAARVFSRPPQPGSPRGYRGFDYWGQGTQVTVSS” here?
**A.** high polyreactivity

**Q.** With “QVQLVESGGCLVQAGGSLRLSCAASGITFESNAMGWYRQAPGIEREFVAAISYDGGDTYYADSVKGRFTISRDNAKNTVYLEMTSLKTEDTAVFYCAAEPGWTMDYWGQGTQVTVSS” as the sequence, how does the “polyreactivity (PSR sort gate)” value read?
**A.** low polyreactivity

**Q.** For “QVQLVESGGCLVQAGGSLRLSCAASGITFYVYAMGWYRQAPGKESELVASITSGGGSTDYADSVKGRVTISRDNAKNTVYLQMNSLKPEDTAVYYCAARYPLLNQLYDFDYWGQGTQVTVSS”, which “polyreactivity (PSR sort gate)” value is on record?
**A.** low polyreactivity

**Q.** Which “polyreactivity (PSR sort gate)” value does the source give for “QVQLVESGGCLVQAGGSLRLSCAASGITITANAMGWYRQAPRKERELVAAITWSGGSTYYADSVKGRFTISRDNAKNTVYLQMNSLKPEETAVYYCNAEGIGDREYDYWGQGTQVTVSS” here?
**A.** low polyreactivity

**Q.** Which “polyreactivity (PSR sort gate)” value does the source give for “QVQLVESGGCLVQAGGSLRLSCAASGLIFGDYAMGWYRPAPGKESELVAAITGSFTRTYYADSVKGSFTISRDNAKNTVYLQMNSLKPEDTAVYYCAADWYKRPPYVYWGQGTQVTLSS” here?
**A.** low polyreactivity

**Q.** Which “polyreactivity (PSR sort gate)” value does the source give for “QVQLVESGGCLVQAGGSLRLSCAASGLIFGRNVMGWYRQAPGKERELVAAISWSGGRTYYADSVKGRFSISRDNAKNTVYLQMNSLKPEDTAVYYCNARYSRVWYGCDYWGQGTQVTVSS” here?
**A.** high polyreactivity

**Q.** For “QVQLVESGGCLVQAGGSLRLSCAASGLTFIVYAMGWYRQAPGKERELVADITWSGGSTYYADSVKGRYTISRDNAKITVYLQMNSLKPVDTAVYYCNRQSAKIMDYWGQGTQVNVSS”, which “polyreactivity (PSR sort gate)” value is on record?
**A.** low polyreactivity

**Q.** For “QVQLVESGGCLVQAGGSLRLSCAASGNTFPYYDMGWYRQAPGKERELVAVIRTGDDTNYADSVKGRFTISRDNAKNTVYLQMNSLKPEDTAVYYCAVVGPKGADGLPPYNRMDYWGHGTQVTVSS”, which “polyreactivity (PSR sort gate)” value is on record?
**A.** low polyreactivity

**Q.** With “QVQLVESGGCLVQAGGSLRLSCAASGNTFVDYAMGWYRQAPGKERELGAAIDQTGGSTYYADSVKGRFTISRDNAKNTVYLQMNSLKPVDTAVYYCASDLSDRKDLYPRWYDYWGQGSQVTVSS” as the sequence, how does the “polyreactivity (PSR sort gate)” value read?
**A.** low polyreactivity

**Q.** With “QVQLVESGGCLVQAGGSLRLSCAASGNTLRTYGMGWYRQAPGKESEFVAAITYSGGSTYYADSVKGRFTISRDNAKNTVYLQMNSLKPEDTAVYYCAARYRSHYRRITPYDSWGQGTQVTVSS” as the sequence, how does the “polyreactivity (PSR sort gate)” value read?
**A.** high polyreactivity

**Q.** For “QVQLVESGGCLVQAGGSLRLSCAASGRIFHQNTMGWYRQAPGKERELVAAISATGGGTNYADSVKGRFTISRDNAKNTVYLQMNSLKPEDTAVYYCAVRPKTSWYSWYYWGQGTQVTVSS”, which “polyreactivity (PSR sort gate)” value is on record?
**A.** low polyreactivity

**Q.** For “QVQLVESGGCLVQAGGSLRLSCAASGRIFQYYTMGWYRQAPAKERELVAAITYSGGDTRYADSVKGRFTISRDNAKNTVYLQMNSLKPEDTAVYYCAADYFDQYQYGVWTYGYWGQGTQVTVSS”, which “polyreactivity (PSR sort gate)” value is on record?
**A.** low polyreactivity

**Q.** Which “polyreactivity (PSR sort gate)” value does the source give for “QVQLVESGGCLVQAGGSLRLSCAASGRIFYGNTMGCYRQAPGKESELVATITRSGGSTYYADSVKGRFTISRDNAKNTVYLQMNNLKPEDTAVYYCAVGYWRLFPYGYWGQGTQVTVSS” here?
**A.** high polyreactivity

**Q.** Which “polyreactivity (PSR sort gate)” value does the source give for “QVQLVESGGCLVQAGGSLRLSCAASGRIVYPYAMGWYRQAPGKERELVAAISSSGGSTYYADSVKGRFTISRDNAKNTVYLQMNSLKPDDTAVYYCAAQEFQKRLGGSWCRYDYWGQGTQVNVSS” here?
**A.** high polyreactivity

**Q.** For “QVQLVESGGCLVQAGGSLRLSCAASGRTFAWYAMGWYRQAPGKERELVAAISSGGSTYYADSVKGRFTISRDNAKNTVYLQMDSLKPEDTAVYYCAAEWHYIYAYDYWGQGTQVTVSS”, which “polyreactivity (PSR sort gate)” value is on record?
**A.** low polyreactivity

**Q.** With “QVQLVESGGCLVQAGGSLRLSCAASGRTFAWYAMGWYRQAPGKERELVAAITNGGSTYYADSVKGRFTISRDNAKNTVYLQMNSLKPDDTAVYYCAAYYRSRHHGYDSWGQGTQVTVSS” as the sequence, how does the “polyreactivity (PSR sort gate)” value read?
**A.** low polyreactivity

**Q.** For “QVQLVESGGCLVQAGGSLRLSCAASGRTFAYYAMGWYRQAPGKERELVAAITRGGSTYYADSVKGRFTISRDNAKNTVYLQMNSLKPEDTAVYYCAADTSPYQDDYWGQGTQVTVSS”, which “polyreactivity (PSR sort gate)” value is on record?
**A.** low polyreactivity

**Q.** For “QVQLVESGGCLVQAGGSLRLSCAASGRTFDINDMGWYRQAPGKEREFVAAIDRSGGNTYYADSVKGRFIISRDNAKNTVYLQMNSLKPEDTAVYYCAADSPYVVAWPYVWYFTFDYWGQGTQVTVTS”, which “polyreactivity (PSR sort gate)” value is on record?
**A.** low polyreactivity

**Q.** With “QVQLVESGGCLVQAGGSLRLSCAASGRTFNRYAMGWYRQAPGKERELVAAITRRGGSTYYADSVKGRFTISRDNAKNTVYLQMNSLKPEDTAVYYCATDTYYSDYGSWGQGTQVTVSS” as the sequence, how does the “polyreactivity (PSR sort gate)” value read?
**A.** high polyreactivity

**Q.** With “QVQLVESGGCLVQAGGSLRLSCAASGRTFPLYAMGWYRQAPGKERELVASITNGGNTNYADSVKGRFTISRDNEKNTVYLQMNSLKPEDTAVYYCAAQTFGYGFGGGDYWGQGTQVTVSS” as the sequence, how does the “polyreactivity (PSR sort gate)” value read?
**A.** low polyreactivity

**Q.** Which “polyreactivity (PSR sort gate)” value does the source give for “QVQLVESGGCLVQAGGSLRLSCAASGRTFRHYGMGWYRPAPRKERELVAAISRSGGRTYYADSVKGRFTISRDNAKNTVYLQMNSLKPEDTAVYYCNAPYDVTTYAFDYWGQGTQVTVSS” here?
**A.** high polyreactivity

**Q.** Which “polyreactivity (PSR sort gate)” value does the source give for “QVQLVESGGCLVQAGGSLRLSCAASGRTFYFYAMGWYRQAPGKERELVASISWSGGRTNYADSVKGRFTSSRDNAKNTVYLQMNSLKPEDTAVHYCAARYVERHTDYYYWGQGTQVTVSS” here?
**A.** low polyreactivity

**Q.** Which “polyreactivity (PSR sort gate)” value does the source give for “QVQLVESGGCLVQAGGSLRLSCAASGRTSVIYAMGWYRQAPGKERELVASIRRGGSTSYADSVKGRFTISRDNAKNTVYLQMNSLKPEDTAVYYCAADRYTWRKSYDYWGQGTQVTVSS” here?
**A.** high polyreactivity

**Q.** For “QVQLVESGGCLVQAGGSLRLSCAASGSIFAYYAMGWYRQAPGKERELVAAITSGDSTYYADSVKGRFTISRDNAKNTVYLQMNSLKPEDTAVYYCAADHIWFYFYLYDYWGQGTQVTVSS”, which “polyreactivity (PSR sort gate)” value is on record?
**A.** low polyreactivity

**Q.** With “QVQLVESGGCLVQAGGSLRLSCAASGSIFGANTMGWYRQAPGKESELVAAISSGGNTYYADSVKGRFTISRDNAKNTVYLQMNSLKPEDTAVYYCNAQTRYRYQYGFLGGTGYNYWGQGTQVTVSS” as the sequence, how does the “polyreactivity (PSR sort gate)” value read?
**A.** low polyreactivity

**Q.** With “QVQLVESGGCLVQAGGSLRLSCAASGSIFRYNIGWYRQAPGKERELVAAISSSGVRTYYADSVKGRFTISRDNAKNTVYLQMNSLKPEDTAVYYCAAASGGRWRVGYWGQGTQVTVSS” as the sequence, how does the “polyreactivity (PSR sort gate)” value read?
**A.** high polyreactivity

**Q.** With “QVQLVESGGCLVQAGGSLRLSCAASGSIFRYYVMGWYRQAPGKERELVAAISSRGGSTYYADSVKGRFTISRDNAKNTVYLQMNSLKPEDTAVYYCAAYRAYSTAVGMEYWGQGTQVTVSS” as the sequence, how does the “polyreactivity (PSR sort gate)” value read?
**A.** high polyreactivity

**Q.** With “QVQLVESGGCLVQAGGSLRLSCAASGSIFYNNAMGWYRQAPGKERELVASSTGGGSTYADSVKGRFTISRDNAKNRVYVQMNSLKPEDTAVYYCAVGRYFVRYDYWGQGSQVTVSS” as the sequence, how does the “polyreactivity (PSR sort gate)” value read?
**A.** low polyreactivity

**Q.** Which “polyreactivity (PSR sort gate)” value does the source give for “QVQLVESGGCLVQAGGSLRLSCAASGSIIGLYPMGWSRQAPGKERELVAAITQSAGSTYYADSVKGRFTISRDNALNTVFLQMNSLKPEDTAVYYCAAVWAYYGYESDYWGQGTQVTVSS” here?
**A.** low polyreactivity
